Reference: paper PMC2855817 (Biochemistry, 2010)
Where two headings read alike, the source gives them in different places.

Experiments:
[1] = molecular target: T1, PFE (Pseudomonas fluorescens esterase; aryl esterase) (Pseudomonas fluorescens, UniProt P22862, L30P); conditions: pH 5.5, 23 °C
T1 sequence (P22862 2-272 L30P): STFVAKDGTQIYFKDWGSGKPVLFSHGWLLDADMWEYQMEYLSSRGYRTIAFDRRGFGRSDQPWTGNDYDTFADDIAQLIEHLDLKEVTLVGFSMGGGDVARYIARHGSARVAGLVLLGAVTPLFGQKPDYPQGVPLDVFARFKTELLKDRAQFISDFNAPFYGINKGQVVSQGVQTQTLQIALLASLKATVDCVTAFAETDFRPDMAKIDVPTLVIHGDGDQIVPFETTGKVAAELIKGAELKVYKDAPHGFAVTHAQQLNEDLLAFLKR

[2] = molecular target: T1, PFE (Pseudomonas fluorescens esterase; aryl esterase); conditions: pH 5.5, 23 °C; estimated upper limit
O=C1CCCCCO1 = assay: purified protein; format: biochemical, Pseudomonas fluorescens; conditions: pH 7.2, BES, 23 °C
[3] = molecular target: L29P variant of Pseudomonas fluorescens (SIK WI) aryl esterase (PFE) (Pseudomonas fluorescens SIK WI); assay: crystal structure

CC(=O)OO [peracetic acid]
Km [1]: 41 ± 5 µM
Km [2]: < 3 µM

PFE (Pseudomonas fluorescens esterase; aryl esterase) (Pseudomonas fluorescens; L30P)
Km (O=C1CCCCCO1): 39000 ± 1000 µM
kcat (O=C1CCCCCO1): 11 ± 1 s⁻¹
kcat/Km (O=C1CCCCCO1): 280 M⁻¹ s⁻¹

L29P variant of Pseudomonas fluorescens (SIK WI) aryl esterase (PFE) (enzyme)
stoichiometry N [3]: 6
